Source: patent US20240002498A1 (TENEOBIO, published 2024)
Residue numbers refer to the chain shown, from its start. Blank lines part the entries; values can stand above or below the binder they belong to.

Columns and labels:
[1] = target: T1, human Folate Receptor Alpha (FOLR1) on cells (human, UniProt P15328 25-234); experiment: cell binding, IGROV-1 cells
T1 construct: whole, on cells; Endogenous on IGROV-1, OVCAR-3, SKOV-3, HT-29 cells; transfected on CHO cells; the cell is named under assay; also called FRα; FRa

[2] = target: T1, human Folate Receptor Alpha (FOLR1) on …; experiment: cell binding, OVCAR-3 cells
[3] = target: T1, human Folate Receptor Alpha (FOLR1) on …; experiment: flow cytometry, IGROV-1 cells
[4] = target: recombinant human FOLR1 (human, UniProt P15328 25-234); experiment: BLI, Octet QK-384, recombinant human FOLR1
Method: As used herein, the “Kd” or “Kd value” refers to a dissociation constant determined by BioLayer Interferometry, using an Octet QK384 instrument (Fortebio Inc., Menlo Park, CA) in kinetics mode. For example, anti-mouse Fc sensors are loaded with mouse-Fc fused antigen and then dipped into antibody-containing wells to measure concentration dependent association rates (kon). Antibody dissociation rates (koff) are measured in the final step, where the sensors are dipped into wells containing buffer only. The Kd is the ratio of koff/kon. (For further details see, Concepcion, J, et al., Comb Chem High Throughput Screen, 12 (8), 791-800, 2009).
Table 17 summarizes affinity and epitope bin information for anti-FOLR1 heavy chain antibodies (HCAbs). Column 1 indicates the clone ID of the HCAb. Column 2 indicates the affinity of the HCAb to recombinant human FOLR1 as measured by Bio-layer interferometry (BLI) using an Octet QK-384. Column 3 indicates the epitope bin of HCAb as determined by a competition BLI binding experiment using an Octet QK-384.

[5] = target: T2, cyno FOLR1 on CHO cells (cyno (Cynomolgus macaque), UniProt A0A2K5U044 25-234); experiment: cell binding, CHO cells stably expressing cyno FOLR1
T2 construct: whole, on cells; also called cyFOLR1

[6] = target: T1, human Folate Receptor Alpha (FOLR1) on …; experiment: cell binding, CHO cells stably expressing human FOLR1
[7] = target: T2, cyno FOLR1 on CHO cells; experiment: flow cytometry, CHO cells stably expressing cyno FOLR1
[8] = target: T1, human Folate Receptor Alpha (FOLR1) on …; experiment: flow cytometry, CHO cells stably expressing human FOLR1
[9] = target: T3, CHO_huFOLR2 (human, UniProt P14207); experiment: flow cytometry on CHO cells stably expressing human FOLR2, MFI fold over background
T3 construct: stably expressed on CHO cells; also called human FOLR2 on CHO cells; folate receptor beta
Method: Anti-FOLR1 HCAb binding to CHO cells stably expressing human FOLR2 (also known as folate receptor beta, FRβ), and CHO cells stably expressing human IZUMO1R (also known as folate receptor delta, FOLR4, FRδ, JUNO) was analyzed for a number of different clones. Data are presented in FIG. 2, panels A-B, as MFI fold over background. Insets show binding of positive control anti-FOLR2 and anti-IZUMO1R antibodies, respectively, in dark grey, compared to the respective isotype control in light grey.

[10] = target: T4, FOLR3 (folate receptor gamma) (UniProt P41439 23-245, limits assumed); experiment: BLI (Octet)
T4 construct: also called FRγ

[11] = target: T5, mouse FOLR1 on CHO cells (mouse, UniProt P35846 25-232); experiment: flow cytometry on CHO cells stably expressing mouse FOLR1, MFI fold over background
T5 construct: whole, on cells; also called msFOLR1
Method: IGROV-1 cells, OVCAR-3 cells, CHO cells stably expressing human FOLR1, CHO cells stably expressing cyno FOLR1, and CHO cells stably expressing mouse FOLR1 were incubated with increasing amounts of the indicated antibodies, and binding characteristics were analyzed. Data are presented in FIG. 1, panels A-E, as MFI fold over background.

T3 sequence (P14207 17-230 limits assumed): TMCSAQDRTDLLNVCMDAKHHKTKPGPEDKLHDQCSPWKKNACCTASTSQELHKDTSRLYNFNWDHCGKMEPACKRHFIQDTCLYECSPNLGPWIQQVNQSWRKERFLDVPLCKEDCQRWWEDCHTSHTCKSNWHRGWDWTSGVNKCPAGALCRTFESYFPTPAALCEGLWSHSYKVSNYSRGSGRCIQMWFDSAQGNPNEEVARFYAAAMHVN
T2 sequence (A0A2K5U044 entry or part of it): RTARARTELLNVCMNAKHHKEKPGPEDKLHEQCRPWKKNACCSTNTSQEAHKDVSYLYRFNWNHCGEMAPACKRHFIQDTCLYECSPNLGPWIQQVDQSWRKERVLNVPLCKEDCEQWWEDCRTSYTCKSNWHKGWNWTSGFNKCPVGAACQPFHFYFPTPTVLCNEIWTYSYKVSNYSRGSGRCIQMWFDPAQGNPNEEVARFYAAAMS
recombinant human FOLR1, sequence (P15328 25-234 limits assumed): as the sequence (A0A2K5U044 entry or part of it) above, with T2I, R4W, K37R, P146A, Y171H counted along it
T1 sequence (P15328 25-234): as the sequence (A0A2K5U044 entry or part of it) above, with T2I, R4W, K37R, P146A, Y171H counted along it
T5 sequence (P35846 25-232): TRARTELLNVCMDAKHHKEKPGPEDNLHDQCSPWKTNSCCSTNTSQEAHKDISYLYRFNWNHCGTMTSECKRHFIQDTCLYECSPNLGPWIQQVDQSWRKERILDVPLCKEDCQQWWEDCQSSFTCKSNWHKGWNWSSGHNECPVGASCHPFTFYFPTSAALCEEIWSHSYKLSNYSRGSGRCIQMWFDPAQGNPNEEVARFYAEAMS
T4 sequence (P41439 23-245 limits assumed): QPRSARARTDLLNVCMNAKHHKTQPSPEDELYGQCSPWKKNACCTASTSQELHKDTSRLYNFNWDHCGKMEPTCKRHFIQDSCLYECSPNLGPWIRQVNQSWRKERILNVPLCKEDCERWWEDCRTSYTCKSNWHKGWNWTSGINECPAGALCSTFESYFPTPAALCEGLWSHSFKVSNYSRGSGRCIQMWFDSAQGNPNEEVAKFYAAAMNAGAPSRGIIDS

EC50 [1]: 3.6 nM
EC50 [2]: 4.9 nM
fold over background MFI [3]: 506 fold over background
Kd [4]: 52.7 nM
EC50 [5]: 3.4 nM
EC50 [6]: 4.6 nM
fold over background MFI [7]: 123 fold over background
fold over background MFI [8]: 1130 fold over background
binding result [9]: no binding (tested: 100 nM)
B1: anti-FOLR1 heavy chain antibody (HCAb, UniAb) clone ID 352372 (antibody, V domains shown)
VH: EVQLVESGGGLVQPGGSLRLSCAASGFSFSSYSMKWVRQAPGKGLEWVSYISSSSDTIEYADSVKGRFTISRDNAKNSLYLQMNSLRDEDTAVYYCASVGLEFDYRGQGTLVTVSS
notes: Heavy chain-only antibody (no light chain), F18 family

binding result [10]: no binding
EC50 [1]: 2.6 nM
EC50 [2]: 0.6 nM
Kd [4]: 22.7 nM
EC50 [5]: 2.4 nM
EC50 [6]: 1.9 nM
fold over background MFI [7]: 1010 fold over background
fold over background MFI [8]: 1890 fold over background
binding result [11]: no binding (tested: 100 nM (log[nM] 2))
B2: anti-FOLR1 heavy chain antibody (HCAb, UniAb) clone ID 358598 (antibody, V domains shown)
VH: B1 VH with K35N, S52T, E102D
notes: as for B1

EC50 [1]: 5 nM
EC50 [2]: 3.3 nM
fold over background MFI [3]: 1640 fold over background
Kd [4]: 37.4 nM
EC50 [5]: 2.1 nM
EC50 [6]: 4.3 nM
fold over background MFI [7]: 159 fold over background
fold over background MFI [8]: 1480 fold over background
binding result [9]: no binding (tested: 100 nM)
B3: anti-FOLR1 heavy chain antibody (HCAb, UniAb) clone ID 352491 (antibody, V domains shown)
VH: B1 VH with D62G, E102D
notes: as for B1

EC50 [1]: 3.8 nM
EC50 [2]: 1.1 nM
fold over background MFI [3]: 1740 fold over background
Kd [4]: 41.8 nM
EC50 [5]: 4.3 nM
EC50 [6]: 3.5 nM
fold over background MFI [7]: 157 fold over background
fold over background MFI [8]: 1410 fold over background
binding result [9]: no binding (tested: 100 nM)
B4: anti-FOLR1 heavy chain antibody (HCAb, UniAb) clone ID 352496 (antibody, V domains shown)
VH: B1 VH with Q13K, E102D
notes: as for B1

EC50 [1]: 8.8 nM
EC50 [2]: 6.3 nM
fold over background MFI [3]: 2300 fold over background
Kd [4]: 36 nM
EC50 [5]: 2.9 nM
EC50 [6]: 5.9 nM
fold over background MFI [7]: 623 fold over background
fold over background MFI [8]: 1070 fold over background
binding result [9]: no binding (tested: 100 nM)
B5: anti-FOLR1 heavy chain antibody (HCAb, UniAb) clone ID 352672 (antibody, V domains shown)
VH: B1 VH with S53R, S98T, E102D
notes: as for B1

EC50 [1]: 4.6 nM
fold over background MFI [3]: 594 fold over background
Kd [4]: 125 nM
EC50 [5]: 3.3 nM
EC50 [6]: 3.8 nM
fold over background MFI [7]: 97.4 fold over background
fold over background MFI [8]: 906 fold over background
binding result [9]: no binding (tested: 100 nM)
B6: anti-FOLR1 heavy chain antibody (HCAb, UniAb) clone ID 352365 (antibody, V domains shown)
VH: B1 VH with D56S, S98T, E102D
notes: as for B1

EC50 [1]: 3.7 nM
EC50 [2]: 32.6 nM
fold over background MFI [3]: 1790 fold over background
Kd [4]: 81.1 nM
EC50 [5]: 5.7 nM
EC50 [6]: 5.4 nM
fold over background MFI [7]: 84.5 fold over background
fold over background MFI [8]: 816 fold over background
binding result [9]: no binding (tested: 100 nM)
B7: anti-FOLR1 heavy chain antibody (HCAb, UniAb) clone ID 352564 (antibody, V domains shown)
VH: B1 VH with S52T, D56S
notes: as for B1

EC50 [1]: 3.7 nM
EC50 [2]: 0.9 nM
Kd [4]: 22.3 nM
EC50 [5]: 1.9 nM
EC50 [6]: 3.3 nM
fold over background MFI [7]: 996 fold over background
fold over background MFI [8]: 1580 fold over background
binding result [11]: no binding (tested: 100 nM (log[nM] 2))
B8: anti-FOLR1 heavy chain antibody (HCAb, UniAb) clone ID 358589 (antibody, V domains shown)
VH: EVQLVESGGGLVQPGGSLRLSCAASGFSFSSYSMKWVRQAPGKGLEWVSYISSSSDTIEYADSVKGRFTISRDNAKNSLYLMNSLRDEDTAVYYCASVGLDFDYRGQGTLVTVSS
notes: as for B1
